Results taken from the RNAGym collection of RNA variant scans (doi:10.7554/elife.80360).

B1: HDV Ribozyme (parent)
chain: GGCCGGCAUGGUCCCAGCCUCCUCGCUGGCGCCGGCUGGGCAACAUUCCGAGGGGACCGUCCCCUCGGUAAUGGCGAAUGGGACCCA

Variants of: B1
Assay: self-cleavage, relative activity (ratio to wild type); higher = more cleavage; co-transcriptional

Row | Variant | self-cleavage
1 | G17C G80C | 0.0906
2 | A42U C75G | 0.125
3 | C33U A71U | 0.65
4 | C14U C33A | 0.201
5 | U46A C57U | 0.657
6 | C48U C62G | 0.485
7 | G17C U69A | 0.453
8 | G31A A51U | 0.283
9 | C13G C75U | 0.0594
10 | U60C G76A | 1.05
11 | A16G G34A | 0.17
12 | C7A A70G | 0.426
13 | A8G C30U | 0.806
14 | G10A C66U | 0.853
15 | G1C U79A | 0.237
16 | A8C A45U | 0.429
17 | C15U A43C | 0.0594
18 | G55C A87U | 1.02
19 | C19G G25A | 0.113
20 | C14G C86G | 0.604
21 | C14G U60G | 0.511
22 | C36A C75G | 0.154
23 | G29A A42C | 0.104
24 | G52U C66G | 0.472

Row | Variant | self-cleavage
25 | C3G C21A | 0
26 | G31A G76A | 0.606
27 | G11U C41G | 0.204
28 | A45G G74U | 0.543
29 | G53A C75G | 0.156
30 | G29U U47A | 0
31 | A8C C63U | 0.633
32 | C36G C41G | 0.151
33 | C32G C44U | 0.0665
34 | G50U C64A | 0.468
35 | G34U G74C | 0.138
36 | C21G G59A | 0.0594
37 | G52C C85A | 0.969
38 | C66G G80C | 0.0959
39 | C21U G38C | 0.0923
40 | G17A G31C | 0.188
41 | G6C U23G | 0
42 | C14A G29U | 0.0966
43 | C4G G74C | 0.0386
44 | G59U U79C | 0.563
45 | U27A G39C | 0.0504
46 | G39A G80A | 0.229
47 | C21U G50A | 0.253
48 | G6C C66U | 0.256

Row | Variant | self-cleavage
49 | C26G A70G | 0.665
50 | G10U G25C | 0.111
51 | C13A C36U | 0.0432
52 | C4U A71C | 0.499
53 | C19A C64A | 0.141
54 | C33G A56G | 0.222
55 | G34C U69G | 0.703
56 | U20G G38C | 0.0489
57 | G28U G55A | 0.0712
58 | C57A A83G | 0.688
59 | G74A C84U | 0.446
60 | G68U U79C | 0.415
61 | C24U C36A | 0.0256
62 | G35A U60C | 0.554
63 | G76C G81A | 0.499
64 | G10C C13G | 0.0723
65 | C26G A51G | 0.997
66 | C18A U65G | 0.19
67 | C26G C30A | 0.623
68 | G38U C44A | 0.16
69 | A51U A83G | 0.669
70 | C4U C85U | 0.665
71 | C4U G31U | 0.0346
72 | U46A C64G | 0.38

Row | Variant | self-cleavage
73 | A8U G82C | 0.0923
74 | C41U G59C | 0.963
75 | G53C A77C | 0.443
76 | G2A G76A | 0.0391
77 | C33A C36G | 0.208
78 | G29A A56C | 0.198
79 | U46C G54C | 1.04
80 | A8U U72C | 0.443
81 | G2C C15U | 0.0563
82 | C3A G29U | 0.0316
83 | U9G C33A | 0.293
84 | G25U C26A | 0.217
85 | G28U A83U | 0.0415
86 | U9A C85U | 0.906
87 | C14U C32G | 0.0462
88 | G28C A87C | 0.0987
89 | C13U | 0.683
90 | G5A G35A | 0.0692
91 | U46G G68U | 0.554
92 | G17C G40U | 0.196
93 | G1C G34U | 0.0692
94 | G5U C75G | 0.246
95 | G11U G53C | 0.284
96 | G25C G59A | 0.0791

Row | Variant | self-cleavage
97 | U72C U79A | 0.369
98 | U23G G81A | 0.0426
99 | G53A A77C | 0.251
100 | C19A | 0.123
101 | G38C G54A | 0.132
102 | A16G C48U | 1.42
103 | G53C C61G | 0.955
104 | G35U C58U | 0.249
105 | G59U G81C | 0.223
106 | G28A A71C | 0.162
107 | G5C C36G | 0.0978
108 | C26A C86U | 0.735
109 | G40U A87C | 0.732
110 | C24G C58A | 0.121
111 | U60G C62A | 0.886
112 | G10C A71U | 0.767
113 | C26A G82C | 0.342
114 | U23C C63A | 0.86
115 | A16U U37A | 0.0554
116 | C4A C15U | 0.0378
117 | G11U C49G | 0.166
118 | C14A G34U | 0.101
119 | C14G A87C | 0.793
120 | U27C U46G | 0.332

Row | Variant | self-cleavage
121 | C4A G74U | 0.0583
122 | C14A G73U | 0.13
123 | A8G C48G | 1.11
124 | C19G C61U | 0.0707
125 | C33G G68A | 0.177
126 | U27C A71U | 0.639
127 | U37C G68U | 1.05
128 | C62G C75A | 0.17
129 | C33A U69C | 0.342
130 | G29U U69C | 0.128
131 | C61U U65G | 0.864
132 | U23A C86G | 0.85
133 | C18A A87G | 0.0811
134 | C3U C64U | 0.954
135 | C15A C66G | 0.688
136 | A8G C84G | 0.396
137 | U12A U60C | 0.391
138 | C22A A43C | 0.111
139 | G2A C41U | 0.198
140 | C19A A51U | 0.175
141 | C15G U69G | 0.256
142 | C13G C62G | 0.158
143 | G59C U60G | 1.16
144 | G5C A71U | 0.18

Row | Variant | self-cleavage
145 | G5C A71C | 0.0639
146 | C26G G35A | 0.326
147 | U23A G38U | 0.208
148 | U47A A87C | 0.95
149 | C18U C30G | 0.0583
150 | C15U A56U | 0.91
151 | C3A A45C | 0.0482
152 | G73A C75A | 0.246
153 | C15A U37A | 0.102
154 | G5U C26G | 0.615
155 | A16C G38U | 0.287
156 | G35U U79G | 0.0426
157 | C7U G73A | 0.424
158 | C57A G68U | 1.14
159 | G38C C75A | 0
160 | A56U | 0.989
161 | G25U A56C | 0.122
162 | C7G U20C | 0
163 | G2U C13G | 0
164 | G34U G68C | 0.322
165 | A45U U79C | 0.26
166 | C24U C61U | 0.718
167 | C24A C63A | 0.882
